Test [1] concerns the target T1, human PTK7 protein (extracellular sequence of human PTK7 with C-terminal 6×His tag) (human, UniProt Q13308 31-704).
T1 construct: extracellular domain; Expressed transiently in HEK293 cells; also called human PTK7-His; human PTK7-His protein
T1 sequence: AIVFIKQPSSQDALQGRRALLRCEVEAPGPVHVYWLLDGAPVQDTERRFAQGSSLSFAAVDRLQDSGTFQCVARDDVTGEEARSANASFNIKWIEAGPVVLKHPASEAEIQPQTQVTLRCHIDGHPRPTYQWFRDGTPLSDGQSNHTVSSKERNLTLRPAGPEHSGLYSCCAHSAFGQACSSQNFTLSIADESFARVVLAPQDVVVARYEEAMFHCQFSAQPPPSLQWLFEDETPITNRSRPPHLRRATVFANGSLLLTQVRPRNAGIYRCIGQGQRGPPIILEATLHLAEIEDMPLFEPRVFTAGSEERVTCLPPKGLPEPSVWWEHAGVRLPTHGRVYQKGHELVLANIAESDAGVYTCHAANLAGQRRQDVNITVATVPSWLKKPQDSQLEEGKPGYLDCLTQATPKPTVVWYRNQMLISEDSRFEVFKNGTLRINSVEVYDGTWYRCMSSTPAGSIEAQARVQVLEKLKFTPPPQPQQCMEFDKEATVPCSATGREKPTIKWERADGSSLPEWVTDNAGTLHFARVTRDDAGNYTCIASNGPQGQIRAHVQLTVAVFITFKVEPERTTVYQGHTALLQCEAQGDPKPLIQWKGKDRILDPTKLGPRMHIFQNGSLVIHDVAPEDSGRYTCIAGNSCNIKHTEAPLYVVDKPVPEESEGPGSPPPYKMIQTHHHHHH
Description: BLI (ForteBio), antibody on Protein A sensor, human PTK7-His 200-3.125 nM, 1:1 global fit. The source says:
(§1) The dynamic affinity of the control Hu24 and candidate antibodies 64A10HZ, 101A6HZ, 4E12HZ and 19C2HZ with human PTK7-His was detected by using ForteBio (Pall life sciences).

Test [2] has as its target T2, human PTK7 on cells (tumor cells endogenously expressing PTK7); CHO-hPTK7, CHO-S-hPTK7 and 293T-hPTK7 … (human, UniProt Q13308 31-1070).
T2 construct: whole, on cells; The cell line of each value is named under assay; also called H1299; H358
T2 sequence (looked up): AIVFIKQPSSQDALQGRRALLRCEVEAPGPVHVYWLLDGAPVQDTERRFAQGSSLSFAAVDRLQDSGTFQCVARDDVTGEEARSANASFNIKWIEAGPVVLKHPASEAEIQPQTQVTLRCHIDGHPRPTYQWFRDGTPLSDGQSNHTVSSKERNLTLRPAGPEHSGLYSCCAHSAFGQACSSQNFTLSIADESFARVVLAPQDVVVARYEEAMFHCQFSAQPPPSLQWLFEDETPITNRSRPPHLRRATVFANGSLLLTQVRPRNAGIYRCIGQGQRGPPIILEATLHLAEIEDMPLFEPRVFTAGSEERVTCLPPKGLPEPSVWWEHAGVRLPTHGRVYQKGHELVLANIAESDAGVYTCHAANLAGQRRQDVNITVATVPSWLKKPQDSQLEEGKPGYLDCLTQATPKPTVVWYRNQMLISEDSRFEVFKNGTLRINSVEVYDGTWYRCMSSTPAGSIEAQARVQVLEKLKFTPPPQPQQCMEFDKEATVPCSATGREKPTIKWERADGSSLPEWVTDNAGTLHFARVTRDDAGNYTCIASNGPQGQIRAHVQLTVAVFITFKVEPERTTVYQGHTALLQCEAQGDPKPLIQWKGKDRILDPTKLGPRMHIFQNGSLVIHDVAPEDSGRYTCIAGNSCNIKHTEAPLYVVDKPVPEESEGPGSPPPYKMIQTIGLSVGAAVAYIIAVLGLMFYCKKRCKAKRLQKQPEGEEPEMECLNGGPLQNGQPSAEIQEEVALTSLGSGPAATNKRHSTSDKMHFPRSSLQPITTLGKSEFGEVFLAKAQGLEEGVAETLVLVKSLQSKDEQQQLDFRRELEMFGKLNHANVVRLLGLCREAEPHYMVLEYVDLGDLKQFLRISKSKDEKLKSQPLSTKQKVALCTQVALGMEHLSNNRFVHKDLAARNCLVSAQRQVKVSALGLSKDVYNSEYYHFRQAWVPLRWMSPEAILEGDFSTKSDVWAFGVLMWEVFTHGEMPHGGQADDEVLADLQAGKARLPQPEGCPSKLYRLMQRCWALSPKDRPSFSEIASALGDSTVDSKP
Description: flow cytometry on CHO-hPTK7 overexpression cells. The source says:
(§2) A flow cytometer (Beckman, Cytoflex) was used for detecting the affinity of the anti-human PTK7 chimeric and humanized antibodies with human non-small cell lung cancer cells H1299, human lung adenocarcinoma cells H1975, human breast cancer cells T47D, human ovarian cancer cells OVCAR-3 (all purchased from NANJING COBIOER BIOSCIENCES CO., LTD) and CHO-hPTK7 overexpression cells.
(§3) The adherent cells were digested by using a pancreatin (Gibco) solution; a proper amount of cells were counted and taken, washed twice by using 1×PBS, and re-suspended in a 1% BSA solution; and then the cells were transferred into a 96-well deep plate at a density of 50 μl/well; a candidate antibody was diluted by using 1% BSA, then 50 μl of diluted antibody was added into the deep plate containing the cells, and incubated for 40 min at 4° C.; the cells were washed twice by using PBS, then 50 μl of diluted secondary antibody was added into each well, uniformly mixed, and incubated for 30 min at 4° C.; and the cells were washed twice by using PBS, then re-suspended in 400 μl of PBS, and subjected to examination by flow cytometer.
(In flow cytometry, cells or beads pass a laser one at a time.)

Test [3] deals with T2, human PTK7 on cells (tumor cells …). Description: competition flow cytometry on 293T-hPTK7 cells, streptavidin-PE; competitor: biotin-labelled Hu24.
Test [4] has the same target. Description: competition flow cytometry on 293T-hPTK7 cells, streptavidin-PE; competitor: biotin-labelled 19C2HZ.
Test [5] addresses T3, monkey PTK7 protein (extracellular sequence of monkey PTK7 with C-terminal 6×His tag) (monkey).
T3 chain: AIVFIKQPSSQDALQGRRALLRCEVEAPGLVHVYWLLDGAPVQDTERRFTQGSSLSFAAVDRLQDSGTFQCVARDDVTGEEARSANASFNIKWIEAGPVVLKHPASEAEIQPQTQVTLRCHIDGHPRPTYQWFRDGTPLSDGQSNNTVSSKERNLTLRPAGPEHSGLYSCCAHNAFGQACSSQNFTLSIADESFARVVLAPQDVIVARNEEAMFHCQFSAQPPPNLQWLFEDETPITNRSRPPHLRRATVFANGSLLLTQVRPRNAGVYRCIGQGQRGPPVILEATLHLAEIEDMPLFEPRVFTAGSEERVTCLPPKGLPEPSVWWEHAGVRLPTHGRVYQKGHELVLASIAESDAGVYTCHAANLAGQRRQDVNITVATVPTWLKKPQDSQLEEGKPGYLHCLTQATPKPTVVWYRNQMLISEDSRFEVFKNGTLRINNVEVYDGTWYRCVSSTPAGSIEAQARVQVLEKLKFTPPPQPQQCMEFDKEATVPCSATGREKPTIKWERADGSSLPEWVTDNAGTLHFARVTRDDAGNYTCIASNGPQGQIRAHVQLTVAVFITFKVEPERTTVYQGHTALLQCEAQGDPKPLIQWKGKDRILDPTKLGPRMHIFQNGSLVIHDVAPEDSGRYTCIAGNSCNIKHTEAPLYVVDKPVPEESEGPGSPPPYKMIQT
Description: BLI (ForteBio), antibody on Protein A sensor, monkey PTK7 protein in solution.
From the text: as §1
ELISA and ForteBio were adopted to detect binding of the anti-human PTK7 chimeric and humanized antibodies to the monkey, mouse and rat PTK7 proteins.
On the technique in general: In BLI a coated tip is dipped into the sample, and binding shifts an interference pattern.

Test [6] addresses T2, human PTK7 on cells (tumor cells …). Description: cell-based or functional assay.
For test [7] the target is unchanged. Description: flow cytometry on H358 cells endogenously expressing PTK7.
The target is the same in test [8]. Description: flow cytometry on OVCAR-3 cells.
From the text: as §2, §3

For test [9] the target is unchanged. Description: competition flow cytometry on 293T-hPTK7 cells, streptavidin-PE; competitor: biotin-labelled 4E12HZ.

These results are taken from patent publication US20260250420A1 (SICHUAN KELUN BIOTECH BIOPHARMACEUTICAL, published 2026).

For orientation: Kd means the concentration at which binding is half-saturated. A word on the koff: it is the first-order rate constant of dissociation. One may read the kon as the second-order rate constant of association. Usually EC50 stands for the midpoint of the concentration-response curve.

B1: 19C2HZ (anti-human PTK7 humanized antibody) (antibody, human IgG1, kappa, V domains shown)
VH: QVTLKESGPTLVKPTQTLTLTCTFSGFSLSTSGMGINWIRQPPGKALEWLALIWWDDDKYYNPSLKNRLTITKDTSKNQVVLTMTNMDPVDTATYYCARSLITTAPSDYWGQGTLVTVSS
VL: DIQMTQSPSSLSASVGDRVTITCKASQNVGTAITWYQQRPGKAPKLLIYSASNRYTGVPSRFSGSGSGTDFTLTISNLQPEDLATYFCLQYSDYPLTFGQGTRLEIKR
notes: Human IgG1 heavy chain constant region and human Kappa light chain constant region
In [1], B1 displayed a Kd of 3.7 nM, an off-rate (koff) of 0.000728 s⁻¹ and a kon of 197000 M⁻¹ s⁻¹. The half-maximal effective concentration (EC50) in test [2] came out at 0.201 µg/mL. In addition, the “IC50 (read off the curve)” value in test [3] was approximately 0.6 µg/mL. The “IC50 (read off the curve)” value in [4] was approximately 0.8 µg/mL. This molecule returned a Kd in test [5] of 0.092 nM. Moreover, the “FADU cell endocytosis activity, EC50” value in test [6] was found to be 0.134 µg/mL.

B2: 19C2 (anti-human PTK7 murine antibody) (antibody, V domains shown)
VH: QVTLKESGPGILKPSQTLSLTCSFSGFSLTTSGMGINWIRQPSGKGLEWLALIWWDDDKYYNPSLKNRLTVSKDPSRNQVFLTITSVDTTDSATYYCARSLITTAPSDYWGQGTSVTVSS
VL: DIVMTQSQKFMSTSVGDRVSITCKASQNVGTAITWYQQRPGQSPQLLIYSASNRYTGVPDRFTGSGSGTDFTLTISNLQSEDLADYFCLQYSDYPLTFGAGTNLELK
notes: Murine antibody purified from hybridoma supernatant on Protein A
B2: it took 0.0583 µg/mL to reach a half-maximal effect in test [7] (EC50).

B3: 64A10HZ05 (VH3+VL2) (anti-human PTK7 humanized antibody) (antibody, human IgG1, kappa, V domains shown)
VH: QVQLQESGPGLVKPSETLSLTCTVSGFSLTSYGVYWVRQPPGKGLEWLGVIWTSGNTNYNPSLKSRLTISKDNSKNQVSLKLSSVTAADTAVYYCVKHDGGNYVGVMNYWGQGTLVTVSS
VL: DIQMTQSPSSLSASVGDRVTITCRASQSISDYLHWYQQKPGKAPKLLIKYASQSISGVPSRFSGSGSGSDFTLTISSLQPEDFATYYCQNGHSFPPTFGGGTKVEIKR
notes: as for B1
B3 returned an EC50 in test [8] of 0.0397 µg/mL.

B4: 4E12HZ (anti-human PTK7 humanized antibody) (antibody, human IgG1, kappa, V domains shown)
VH: QVQLVQSGAEVKRPGASVKVSCKTSGYTFTDYAMHWVRQAPGKGLEWIGVISTYYGNVSYNQKFKGRVTMTRDTSTSTVYMELSSLTSEDTAIYYCARGFAYWGQGTLVTVSS
VL: DIVITQTELSLPVTPGERASISCRSSKSLQKKDGKTYLNWFLQKPGQSPQLLIYLMSTRASGVSDRFSGSGSGTDFTLKISRVEAEDVGVYYCQQLVEYPFTFGQGTKLEIKR
notes: as for B1
As to B4, in test [1], the dissociation constant (Kd) was 22 nM, the koff amounted to 0.00534 s⁻¹ and the kon was found to be 243000 M⁻¹ s⁻¹. For the same molecule, in test [2], a half-maximal response (EC50) required 0.0414 µg/mL. The Kd in test [5] came out at 9.68 nM. Besides, the “IC50 (read off the curve)” value in test [9] is approximately 0.1 µg/mL. Besides, in [6], the “FADU cell endocytosis activity, EC50” value was 0.147 µg/mL.
